From publication PMC4829300 (RNA Biology, 2016) come the findings set out here.

Data set [1] has as its target Prp43 92–767 (Saccharomyces cerevisiae, UniProt P53131). The conditions noted are these: ATPase assay of the truncation; details in supplement.
For data set [2], the target named is Prp43 1–657 (Saccharomyces cerevisiae, UniProt P53131). The conditions noted are these: ATPase assay of the truncation; details in supplement.
The test system of data set [3] is Prp43;Cmg1 (Saccharomyces cerevisiae?;Saccharomyces cerevisiae?). The data set can be described thus: fluorescence anisotropy.
The subject of data set [4] is Prp43. The data set can be described thus: fluorescence anisotropy.
The target of data set [5] is His-GFP-tagged Prp43 (S. cerevisiae, UniProt P53131 1-767). Kind of data set: pull-down.
Chain of His-GFP-tagged Prp43 (P53131 whole entry): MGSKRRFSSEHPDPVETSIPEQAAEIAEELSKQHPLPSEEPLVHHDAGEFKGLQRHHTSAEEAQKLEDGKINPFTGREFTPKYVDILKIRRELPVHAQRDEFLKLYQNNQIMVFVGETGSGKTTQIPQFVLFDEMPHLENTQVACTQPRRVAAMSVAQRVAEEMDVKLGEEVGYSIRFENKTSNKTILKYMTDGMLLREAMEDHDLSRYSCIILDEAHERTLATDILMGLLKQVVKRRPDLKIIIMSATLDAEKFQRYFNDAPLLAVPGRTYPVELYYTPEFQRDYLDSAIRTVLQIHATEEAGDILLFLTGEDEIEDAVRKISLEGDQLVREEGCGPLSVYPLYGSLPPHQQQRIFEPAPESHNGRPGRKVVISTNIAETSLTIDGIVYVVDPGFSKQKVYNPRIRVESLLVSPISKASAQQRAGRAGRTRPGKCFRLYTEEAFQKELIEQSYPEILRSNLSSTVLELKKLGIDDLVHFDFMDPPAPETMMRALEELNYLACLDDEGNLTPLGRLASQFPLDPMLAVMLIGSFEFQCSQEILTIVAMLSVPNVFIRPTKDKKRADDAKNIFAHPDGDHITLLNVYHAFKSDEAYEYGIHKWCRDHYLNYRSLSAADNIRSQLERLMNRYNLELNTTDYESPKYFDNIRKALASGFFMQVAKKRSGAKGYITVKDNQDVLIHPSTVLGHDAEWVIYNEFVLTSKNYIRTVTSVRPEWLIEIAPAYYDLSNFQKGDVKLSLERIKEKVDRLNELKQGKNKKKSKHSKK
In data set [6] the target is His10-ZZ-TEV-tagged full length Prp43 (S. cerevisiae, UniProt P53131 1-767). The data set can be described thus: pull-down.
Chain of His10-ZZ-TEV-tagged full length Prp43 (P53131 whole entry): as above

Chain of Prp43 92–767 (P53131 92-767): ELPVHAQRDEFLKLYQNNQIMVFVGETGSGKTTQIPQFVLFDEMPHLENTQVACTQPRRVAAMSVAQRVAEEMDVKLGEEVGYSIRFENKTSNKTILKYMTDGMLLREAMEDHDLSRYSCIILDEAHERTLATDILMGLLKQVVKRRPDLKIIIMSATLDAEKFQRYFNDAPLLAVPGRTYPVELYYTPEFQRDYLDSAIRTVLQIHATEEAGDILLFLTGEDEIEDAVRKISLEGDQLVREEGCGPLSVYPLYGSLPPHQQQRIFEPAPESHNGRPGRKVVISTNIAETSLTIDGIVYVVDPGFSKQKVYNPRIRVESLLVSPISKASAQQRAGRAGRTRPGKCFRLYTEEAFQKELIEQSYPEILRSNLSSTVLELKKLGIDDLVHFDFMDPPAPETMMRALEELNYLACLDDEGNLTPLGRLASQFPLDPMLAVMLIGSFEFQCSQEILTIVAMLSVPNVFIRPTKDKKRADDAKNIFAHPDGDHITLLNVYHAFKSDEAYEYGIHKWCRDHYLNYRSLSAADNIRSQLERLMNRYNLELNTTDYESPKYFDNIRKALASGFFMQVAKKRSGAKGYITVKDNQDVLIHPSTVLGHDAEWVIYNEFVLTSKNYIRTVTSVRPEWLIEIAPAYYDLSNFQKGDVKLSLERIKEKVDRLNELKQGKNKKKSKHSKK
Chain of Prp43 1–657 (P53131 1-657): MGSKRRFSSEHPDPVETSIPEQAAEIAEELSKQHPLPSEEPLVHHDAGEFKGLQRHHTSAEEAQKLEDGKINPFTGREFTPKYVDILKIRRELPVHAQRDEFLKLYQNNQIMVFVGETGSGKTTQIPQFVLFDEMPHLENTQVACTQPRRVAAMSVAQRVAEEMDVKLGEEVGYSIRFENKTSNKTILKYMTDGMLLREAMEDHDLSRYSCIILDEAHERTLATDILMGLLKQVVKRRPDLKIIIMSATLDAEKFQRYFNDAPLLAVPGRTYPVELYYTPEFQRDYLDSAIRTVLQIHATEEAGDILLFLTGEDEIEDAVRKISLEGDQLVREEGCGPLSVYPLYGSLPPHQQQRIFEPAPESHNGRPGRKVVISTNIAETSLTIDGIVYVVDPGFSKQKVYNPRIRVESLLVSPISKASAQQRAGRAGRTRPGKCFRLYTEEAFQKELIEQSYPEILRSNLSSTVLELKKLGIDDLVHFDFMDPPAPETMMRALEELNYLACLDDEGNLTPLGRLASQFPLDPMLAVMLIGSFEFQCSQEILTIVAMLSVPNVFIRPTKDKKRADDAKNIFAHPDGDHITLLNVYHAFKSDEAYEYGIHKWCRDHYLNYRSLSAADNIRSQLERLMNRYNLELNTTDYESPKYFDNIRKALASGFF

For the molecule `Nc1ncnc2c1ncn2[C@@H]1O[C@H](COP(=O)(O)OP(=O)(O)OP(=O)(O)O)[C@@H](O)[C@H]1O` [ATP], the “NADH-coupled ATPase assay (pyruvate kinase / LDH), A340” value in data set [1] was “the N- and C-terminal truncations of Prp43 themselves show ATPase activity”; in data set [2], “the N- and C-terminal truncations of Prp43 themselves show ATPase activity”.

As for fluorescein-labeled 11 nt RNA, the Kd was 2.3 nM in data set [3] and 60 nM in data set [4].

B1: His10-ZZ-TEV-tagged Cmg1 (natural protein)
chain: MEESKTKRKEDRIDLKNTPPQKKSKRDSTNDETARTSLRSIMPRGYKMMENMGYKEGETLGSNESALKEPIKVEINTKRRGIRAEKPDPSTMNDMQMSEQRFIKRESEMKNNKRLKKIWYRIQKVAFEMMGDSDLYNPGEDPRDFNVLWRSYVMQLNEEVAKNDLNNHSNNDNEDKNNMIPMVNESLEASPAIKGEKFGRPSTLIDCDTSIIGSRITKDTELAELEELSIEKRITKLNIFLRSEKYYCFFCGIKYKDEGDLYEHCPGVNEDDHK
For B1, the binding result in data set [5] is on record as “binds”.

B2: MBP-tagged full length Cmg1 (natural protein)
chain: MEESKTKRKEDRIDLKNTPPQKKSKRDSTNDETARTSLRSIMPRGYKMMENMGYKEGETLGSNESALKEPIKVEINTKRRGIRAEKPDPSTMNDMQMSEQRFIKRESEMKNNKRLKKIWYRIQKVAFEMMGDSDLYNPGEDPRDFNVLWRSYVMQLNEEVAKNDLNNHSNNDNEDKNNMIPMVNESLEASPAIKGEKFGRPSTLIDCDTSIIGSRITKDTELAELEELSIEKRITKLNIFLRSEKYYCFFCGIKYKDEGDLYEHCPGVNEDDHK
For the molecule B2, the binding result in data set [6] is reported as “binds”.

B3: His10-MBP-TEV-tagged Pxr1 1–82 (domain or fragment)
chain: MGLAATRTKQRFGLDPRNTAWSNDTSRFGHQFLEKFGWKPGMGLGLSPMNSNTSHIKVSIKDDNVGLGAKLKRKDKKDEFDN
Regarding B3, the binding result in data set [5] is listed as “binds”.

B4: His10-ZZ-TEV-tagged Spp382 G-patch domain (amino acids 51–110) (domain or fragment)
chain: NAPTISKLTKTYGIGAKLLSSMGYVAGKGLGKDGSGITTPIETQSRPMHNAGLGMFSNTN
Regarding B4, the binding result in data set [5] is given as “binds”.

B5: His10-MBP-TEV-tagged Sqs1 705–767 (domain or fragment)
chain: VKEGEIVGQNAPEIGNENIGRRMLEKLGWKSGEGLGIQGNKGISEPIFAKIKKNRSGLRHSES
Turning to B5, the binding result in data set [5] is on record as “binds”.

B6: His10-MBP-TEV-tagged Cmg1 1–85 (domain or fragment)
chain: MEESKTKRKEDRIDLKNTPPQKKSKRDSTNDETARTSLRSIMPRGYKMMENMGYKEGETLGSNESALKEPIKVEINTKRRGIRAE
For the molecule B6, the binding result in data set [6] and in data set [5] was “binds” each time.
